From publication PMC12062965, “Transposable Elements Drive Regulatory and Functional Innovation of F-box Genes”

Experiments:
[1] = biological target: T1, GST-FBXA-192 FL (Caenorhabditis elegans, UniProt Q9XUX2 1-401); assay: EMSA; 50 mM Tris-HCl pH 7.5, 150 mM NaCl, 1 mM DTT, protease inhibitors, 2.5% glycerol, 77.3 nM DNA, 25 C 15 min; native 1.5% agarose gel in TBE at 4 C, SYBR Gold stain; settings: protein: recombinant; tags: N-terminal GST; blunt
T1 sequence: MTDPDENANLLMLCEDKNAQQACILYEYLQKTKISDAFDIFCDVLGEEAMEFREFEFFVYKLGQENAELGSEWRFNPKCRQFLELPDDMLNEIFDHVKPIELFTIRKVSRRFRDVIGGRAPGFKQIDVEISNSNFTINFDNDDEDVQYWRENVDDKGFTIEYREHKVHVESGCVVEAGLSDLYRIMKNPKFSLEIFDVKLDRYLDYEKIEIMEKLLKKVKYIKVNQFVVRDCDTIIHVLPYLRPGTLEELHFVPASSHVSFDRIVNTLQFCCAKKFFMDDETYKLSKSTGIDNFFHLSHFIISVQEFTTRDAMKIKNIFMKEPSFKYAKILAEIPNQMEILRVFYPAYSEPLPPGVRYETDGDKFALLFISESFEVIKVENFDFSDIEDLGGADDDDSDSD

[2] = biological target: T2, GST-FBXA-215 FL (Caenorhabditis elegans, UniProt A0A8S4Q9N7 1-401); assay: as above; settings: protein: recombinant; tags: N-terminal GST; blunt
T2 sequence: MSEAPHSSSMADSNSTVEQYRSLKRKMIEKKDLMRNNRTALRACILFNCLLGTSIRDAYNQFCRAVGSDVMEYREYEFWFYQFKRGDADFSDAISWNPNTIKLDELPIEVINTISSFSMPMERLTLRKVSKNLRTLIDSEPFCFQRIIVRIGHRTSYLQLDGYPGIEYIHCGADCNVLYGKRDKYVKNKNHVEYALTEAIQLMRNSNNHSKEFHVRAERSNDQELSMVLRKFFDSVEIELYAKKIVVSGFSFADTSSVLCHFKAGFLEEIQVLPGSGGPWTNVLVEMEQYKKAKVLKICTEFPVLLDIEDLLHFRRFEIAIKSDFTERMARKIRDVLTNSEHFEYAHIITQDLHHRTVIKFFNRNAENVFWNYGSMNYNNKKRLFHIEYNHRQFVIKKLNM

B1: Mos1 right TIR (IRR100) (dsDNA)
DNA 1: TTTCTTTTTCCACAAAATTTAACGTGTTTTTTGATTTAAAAAAAACGACATTTCATACTTGTACACCTGA
DNA 2: TCAGGTGTACAAGTATGAAATGTCGTTTTTTTTAAATCAAAAAACACGTTAAATTTTGTGGAAAAAGAAA
binding result [1]: no binding | binding result [2]: no binding
